Test results: patent US20240287172A1 (SCIRHOM, published 2024)

Biological target: T1, hiR2-FL-L589P-T7 (human, UniProt Q6PJF5 1-856)
T1 sequence: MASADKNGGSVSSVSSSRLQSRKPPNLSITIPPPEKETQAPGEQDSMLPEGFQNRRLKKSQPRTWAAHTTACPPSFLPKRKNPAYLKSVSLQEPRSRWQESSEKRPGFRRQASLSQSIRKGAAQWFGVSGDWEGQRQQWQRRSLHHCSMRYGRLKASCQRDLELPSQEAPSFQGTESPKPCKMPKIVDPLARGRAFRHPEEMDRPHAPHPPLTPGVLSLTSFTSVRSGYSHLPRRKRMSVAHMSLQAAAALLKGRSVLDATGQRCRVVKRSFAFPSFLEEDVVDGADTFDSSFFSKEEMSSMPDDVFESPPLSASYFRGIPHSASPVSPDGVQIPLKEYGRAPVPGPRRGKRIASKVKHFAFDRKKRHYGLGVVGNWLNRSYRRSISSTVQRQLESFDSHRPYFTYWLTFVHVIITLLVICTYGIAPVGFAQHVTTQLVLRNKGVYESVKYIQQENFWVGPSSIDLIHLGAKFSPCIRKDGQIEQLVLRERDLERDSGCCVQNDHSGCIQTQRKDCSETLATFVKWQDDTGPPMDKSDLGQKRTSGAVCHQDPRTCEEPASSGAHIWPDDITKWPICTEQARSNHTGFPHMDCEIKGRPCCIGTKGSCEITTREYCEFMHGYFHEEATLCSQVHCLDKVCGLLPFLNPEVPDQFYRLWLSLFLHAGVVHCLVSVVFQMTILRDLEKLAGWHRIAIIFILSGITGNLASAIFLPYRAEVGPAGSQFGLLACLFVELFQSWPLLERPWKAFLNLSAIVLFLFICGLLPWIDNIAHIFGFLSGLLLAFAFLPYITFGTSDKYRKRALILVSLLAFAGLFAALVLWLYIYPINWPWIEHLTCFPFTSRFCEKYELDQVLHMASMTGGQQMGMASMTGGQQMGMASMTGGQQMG
Test: FACS, MEF-DKO cells, 3 µg/ml
Method in brief: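 MEF-DKO cells expressing T7-tagged full-length hiR2 point mutants were stained on ice for 1 h with purified antibodies at 3 μg/ml in FACS buffer. Detection used PE-conjugated goat anti-mouse IgG F(ab′)2 (1:100, 1 h on ice), read by flow cytometry; buffer-only wells served as controls.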

B1: antibody 48 (antibody, V domains shown)
VH: QVQLQQSGTELVRPGTSVKVSCKASGYAFTNYLIEWVKQRPGQGLEWIGVINPGSGFTKYNEKFKGKATLTADKSSSTVYMHLSSLTSEDSAVYFCARGLYRAMDYWGQGTSVTVSS
VL: DIQMTQSPASQSASLGESVTITCLASQTIATWLAWYQQKPGKSPQLLIYGATTLADGVPSRFSGGGSGTKFSFKISSLQAEDFVSYYCQQLYSTPYTFGGGTKLEIK
notes: mouse IgG, kappa light chain; also called clone #48; purified antibody 48
B1 was tested, and the “loss of binding vs wild type” value was ≥ 60%.

B2: antibody 50 (antibody, V domains shown)
VH: QVQLQQSGAELVRPGASVKVSCKASGYAFSNYLIEWVKQRPGQGLEWIGVINPGSGFTKYNEKFKGKATLTADKSSSTAYMQLSSLTSEDSAVYFCARGLYRAMDYWGQGTSVTVSS
VL: DIQMTQSPASQSASLGESVTITCLASQTIGTWLAWYQQKPGKSPQLLIYAAASLADGVPSRFSGGGSGTKFSFKISSLQAEDFVNYYCQQIYSTPYTFGGGTKLEIK
notes: mouse IgG, kappa light chain; also called clone #50; purified antibody 50
For B2, the “loss of binding vs wild type” value was ≥ 95%.
